Results published in publication PMC4908180.

Experiments:
[1] = test system: Cc1cc2nc3c(=O)[nH]c(=O)nc-3n(C[C@H](O)[C@H](O)[C@H](O)COP(=O)(O)O)c2cc1C; assay: purified protein; format: biochemical, Homo sapiens; details: 100 μM ATP, 5 mM MgCl2, 50 mM Tris-HCl pH 7.5, 37°C
[2] = test system: Nc1ncnc2c1ncn2[C@@H]1O[C@H](COP(=O)(O)OP(=O)(O)OP(=O)(O)O)[C@@H](O)[C@H]1O; assay: purified protein; details: FMN co-substrate, MgCl2, Tris-HCl pH 7.5, 37°C

Question: What does the source list for “6His-tagged human FADS isoform 2 (FADS2), WT (Homo sapiens; DEL495-495)”?
Answer: Km [1]: 0.98 ± 0.23 µM; Km [2]: 8.02 ± 2.23 µM

Question: How did the Km [1] turn out when “6His-tagged human FADS isoform 2 (FADS2), WT (Homo sapiens; R530C)” was run?
Answer: 0.39 ± 0.07 µM

Question: And the Km [2]?
Answer: 4.63 ± 1.00 µM

Question: With “6His-tagged human FADS isoform 2 (FADS2), WT (Homo sapiens)” as the substance, how does the Km [1] read?
Answer: 0.32 ± 0.10 µM

Question: And the Km [2]?
Answer: 8.10 ± 1.37 µM
